Molecular target: T1, 人BCMA蛋白 (on 3T3-BCMA cells) (human, UniProt Q02223 1-54)
T1 construct: extracellular domain; also called 3T3-BCMA细胞表面BCMA蛋白; CD269
T1 sequence (looked up): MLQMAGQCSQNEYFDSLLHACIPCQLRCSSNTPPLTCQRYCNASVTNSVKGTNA
Assay: Flow cytometry: PE-labelled 69G8 titrated from 400 nM to 0.025 nM on 3T3-BCMA cells; mean fluorescence fitted with GraphPad Prism 7

Kd: 13.8 nM
B1: 抗人BCMA单克隆抗体69G8 (antibody, V domains shown)
VH: QVQLQQSGAEVVRPGTSVKVSCKASGYAFTNYLIEWVKQRPGQGPEWIGVITPGRGDTKYNAKFAGKATLTADKSSSTAYMQLSSLTFDDSAVYFCARGTTAWFPYWGQGTLVTVSA
VL: DIVLTQSPASLTVSLGQRATISCRASKSVSTSGYSYMHWYQQKPRQPPKLLIYLASNLESGVPARFSGSGSGTDFTLNIHPVEEEDAATYYCQHSRDLPYTFGGGTKLEIKR
notes: also called 69G8抗体; PE标记抗体69G8
